T1: TNFR1 (Homo sapiens, UniProt P19438)
T1 chain: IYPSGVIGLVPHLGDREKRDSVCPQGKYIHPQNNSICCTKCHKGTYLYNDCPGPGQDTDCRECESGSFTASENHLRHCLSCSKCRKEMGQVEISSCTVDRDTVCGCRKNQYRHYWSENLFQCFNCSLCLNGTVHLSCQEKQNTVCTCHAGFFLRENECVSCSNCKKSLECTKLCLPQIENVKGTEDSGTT


Biological target: T1, TNFR1
Test: yeast display SC50

Binder	apparent Kd (screen) [pM]
E84S (designed binder) MTLQELLREEALRRAEAEAFRYALELLAEKFPEQKEYLLDLAEEIESQIRSLSGVDVEDVRKFLDKEWAWVKELLAEHPAELASVEAARAARLAELRAEVEAKVAA	653
H78E (designed binder) MTLQELLREEALRRAEAEAFRYALELLAEKFPEQKEYLLDLAEEIESQIRSLSGVDVEDVRKFLDKEWAWVKELLAEEPAELAEVEAARAARLAELRAEVEAKVAA	653
E16V (designed binder) MTLQELLREEALRRAVAEAFRYALELLAEKFPEQKEYLLDLAEEIESQIRSLSGVDVEDVRKFLDKEWAWVKELLAEHPAELAEVEAARAARLAELRAEVEAKVAA	446
E46L (designed binder) MTLQELLREEALRRAEAEAFRYALELLAEKFPEQKEYLLDLAEEILSQIRSLSGVDVEDVRKFLDKEWAWVKELLAEHPAELAEVEAARAARLAELRAEVEAKVAA	539
F20W (designed binder) MTLQELLREEALRRAEAEAWRYALELLAEKFPEQKEYLLDLAEEIESQIRSLSGVDVEDVRKFLDKEWAWVKELLAEHPAELAEVEAARAARLAELRAEVEAKVAA	4830
E16R (designed binder) MTLQELLREEALRRARAEAFRYALELLAEKFPEQKEYLLDLAEEIESQIRSLSGVDVEDVRKFLDKEWAWVKELLAEHPAELAEVEAARAARLAELRAEVEAKVAA	2050
L3S (designed binder) MTSQELLREEALRRAEAEAFRYALELLAEKFPEQKEYLLDLAEEIESQIRSLSGVDVEDVRKFLDKEWAWVKELLAEHPAELAEVEAARAARLAELRAEVEAKVAA	15200
A69Y (designed binder) MTLQELLREEALRRAEAEAFRYALELLAEKFPEQKEYLLDLAEEIESQIRSLSGVDVEDVRKFLDKEWYWVKELLAEHPAELAEVEAARAARLAELRAEVEAKVAA	1050
L38G (designed binder) MTLQELLREEALRRAEAEAFRYALELLAEKFPEQKEYGLDLAEEIESQIRSLSGVDVEDVRKFLDKEWAWVKELLAEHPAELAEVEAARAARLAELRAEVEAKVAA	24400
D59H (designed binder) MTLQELLREEALRRAEAEAFRYALELLAEKFPEQKEYLLDLAEEIESQIRSLSGVDVEHVRKFLDKEWAWVKELLAEHPAELAEVEAARAARLAELRAEVEAKVAA	869
I45M (designed binder) MTLQELLREEALRRAEAEAFRYALELLAEKFPEQKEYLLDLAEEMESQIRSLSGVDVEDVRKFLDKEWAWVKELLAEHPAELAEVEAARAARLAELRAEVEAKVAA	12500
E95R (designed binder) MTLQELLREEALRRAEAEAFRYALELLAEKFPEQKEYLLDLAEEIESQIRSLSGVDVEDVRKFLDKEWAWVKELLAEHPAELAEVEAARAARLARLRAEVEAKVAA	593
A106E (designed binder) MTLQELLREEALRRAEAEAFRYALELLAEKFPEQKEYLLDLAEEIESQIRSLSGVDVEDVRKFLDKEWAWVKELLAEHPAELAEVEAARAARLAELRAEVEAKVAE	790
D56K (designed binder) MTLQELLREEALRRAEAEAFRYALELLAEKFPEQKEYLLDLAEEIESQIRSLSGVKVEDVRKFLDKEWAWVKELLAEHPAELAEVEAARAARLAELRAEVEAKVAA	2250

The remaining lines, values ahead:

apparent Kd (screen) [pM]	Binder
869	E86S (designed binder) MTLQELLREEALRRAEAEAFRYALELLAEKFPEQKEYLLDLAEEIESQIRSLSGVDVEDVRKFLDKEWAWVKELLAEHPAELAEVSAARAARLAELRAEVEAKVAA
490	A23G (designed binder) MTLQELLREEALRRAEAEAFRYGLELLAEKFPEQKEYLLDLAEEIESQIRSLSGVDVEDVRKFLDKEWAWVKELLAEHPAELAEVEAARAARLAELRAEVEAKVAA
446	A76Q (designed binder) MTLQELLREEALRRAEAEAFRYALELLAEKFPEQKEYLLDLAEEIESQIRSLSGVDVEDVRKFLDKEWAWVKELLQEHPAELAEVEAARAARLAELRAEVEAKVAA
653	A106S (designed binder) MTLQELLREEALRRAEAEAFRYALELLAEKFPEQKEYLLDLAEEIESQIRSLSGVDVEDVRKFLDKEWAWVKELLAEHPAELAEVEAARAARLAELRAEVEAKVAS
2480	V71Y (designed binder) MTLQELLREEALRRAEAEAFRYALELLAEKFPEQKEYLLDLAEEIESQIRSLSGVDVEDVRKFLDKEWAWYKELLAEHPAELAEVEAARAARLAELRAEVEAKVAA
490	A11V (designed binder) MTLQELLREEVLRRAEAEAFRYALELLAEKFPEQKEYLLDLAEEIESQIRSLSGVDVEDVRKFLDKEWAWVKELLAEHPAELAEVEAARAARLAELRAEVEAKVAA
12500	A28R (designed binder) MTLQELLREEALRRAEAEAFRYALELLREKFPEQKEYLLDLAEEIESQIRSLSGVDVEDVRKFLDKEWAWVKELLAEHPAELAEVEAARAARLAELRAEVEAKVAA
593	F31N (designed binder) MTLQELLREEALRRAEAEAFRYALELLAEKNPEQKEYLLDLAEEIESQIRSLSGVDVEDVRKFLDKEWAWVKELLAEHPAELAEVEAARAARLAELRAEVEAKVAA
790	A88G (designed binder) MTLQELLREEALRRAEAEAFRYALELLAEKFPEQKEYLLDLAEEIESQIRSLSGVDVEDVRKFLDKEWAWVKELLAEHPAELAEVEAGRAARLAELRAEVEAKVAA
24400	L7W (designed binder) MTLQELWREEALRRAEAEAFRYALELLAEKFPEQKEYLLDLAEEIESQIRSLSGVDVEDVRKFLDKEWAWVKELLAEHPAELAEVEAARAARLAELRAEVEAKVAA
24400	S53C (designed binder) MTLQELLREEALRRAEAEAFRYALELLAEKFPEQKEYLLDLAEEIESQIRSLCGVDVEDVRKFLDKEWAWVKELLAEHPAELAEVEAARAARLAELRAEVEAKVAA
593	V71L (designed binder) MTLQELLREEALRRAEAEAFRYALELLAEKFPEQKEYLLDLAEEIESQIRSLSGVDVEDVRKFLDKEWAWLKELLAEHPAELAEVEAARAARLAELRAEVEAKVAA
6430	F63H (designed binder) MTLQELLREEALRRAEAEAFRYALELLAEKFPEQKEYLLDLAEEIESQIRSLSGVDVEDVRKHLDKEWAWVKELLAEHPAELAEVEAARAARLAELRAEVEAKVAA
16700	A69P (designed binder) MTLQELLREEALRRAEAEAFRYALELLAEKFPEQKEYLLDLAEEIESQIRSLSGVDVEDVRKFLDKEWPWVKELLAEHPAELAEVEAARAARLAELRAEVEAKVAA
1860	L82R (designed binder) MTLQELLREEALRRAEAEAFRYALELLAEKFPEQKEYLLDLAEEIESQIRSLSGVDVEDVRKFLDKEWAWVKELLAEHPAERAEVEAARAARLAELRAEVEAKVAA
11400	I45R (designed binder) MTLQELLREEALRRAEAEAFRYALELLAEKFPEQKEYLLDLAEERESQIRSLSGVDVEDVRKFLDKEWAWVKELLAEHPAELAEVEAARAARLAELRAEVEAKVAA
1160	E43P (designed binder) MTLQELLREEALRRAEAEAFRYALELLAEKFPEQKEYLLDLAPEIESQIRSLSGVDVEDVRKFLDKEWAWVKELLAEHPAELAEVEAARAARLAELRAEVEAKVAA
653	E29T (designed binder) MTLQELLREEALRRAEAEAFRYALELLATKFPEQKEYLLDLAEEIESQIRSLSGVDVEDVRKFLDKEWAWVKELLAEHPAELAEVEAARAARLAELRAEVEAKVAA
653	A88C (designed binder) MTLQELLREEALRRAEAEAFRYALELLAEKFPEQKEYLLDLAEEIESQIRSLSGVDVEDVRKFLDKEWAWVKELLAEHPAELAEVEACRAARLAELRAEVEAKVAA
869	A87I (designed binder) MTLQELLREEALRRAEAEAFRYALELLAEKFPEQKEYLLDLAEEIESQIRSLSGVDVEDVRKFLDKEWAWVKELLAEHPAELAEVEIARAARLAELRAEVEAKVAA
539	P79D (designed binder) MTLQELLREEALRRAEAEAFRYALELLAEKFPEQKEYLLDLAEEIESQIRSLSGVDVEDVRKFLDKEWAWVKELLAEHDAELAEVEAARAARLAELRAEVEAKVAA
